Test results from patent US20180327495A1.

Target: Trop-2 (EGP-1) (human) (UniProt P09758)
Assay: cell-based or functional assay

Chain of Trop-2 (EGP-1) (human) (P09758 27-323): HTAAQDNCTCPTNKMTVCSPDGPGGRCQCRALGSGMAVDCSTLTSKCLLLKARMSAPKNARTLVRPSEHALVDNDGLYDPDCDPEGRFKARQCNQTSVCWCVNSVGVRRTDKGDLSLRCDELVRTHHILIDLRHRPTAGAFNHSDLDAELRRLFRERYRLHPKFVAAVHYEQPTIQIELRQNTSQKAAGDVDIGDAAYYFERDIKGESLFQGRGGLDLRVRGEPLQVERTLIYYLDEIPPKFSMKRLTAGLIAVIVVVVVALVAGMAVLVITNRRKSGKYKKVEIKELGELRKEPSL

ADCC, specific lysis (PBMC effectors, effector to target ratio 100:1, antibody at 33.3 nM): 8.5%
Substance: hRS7 (anti-EGP-1 / anti-Trop-2 humanized MAb), unconjugated IgG (antibody)
